# Measurements reported in patent US5580760, “FUSE binding protein and cDNA therefor” (The United States of America as represented by the …).
# B1: FUSE (dsDNA)
# DNA 1: GATCACAAAATAAAAAATCCCGAGGGAATATAG
# DNA 2: CTATATTCCCTCGGGATTTTTTATTTTGTGATC
# Columns and labels:
# [1] = molecular target: FBP full length (CMV expression) (Homo sapiens) (UniProt Q96AE4); test: cell_activity; details: CAT activation vs empty vector, U937 cells
# GST alone = GST alone (UniProt P08515 P08515:1-218); test: EMSA; GST control; details: tags: pGEX-2T without insert; label: 5'-32P
# Description: Purified recombinant proteins were incubated with double stranded, ^32P labeled, oligonucleotide (Probe) in the presence or absence of the indicated quantity of unlabeled, double stranded oligonucleotide as competitor, and subjected to EMSA. (M. Fried and D. M. Crothers, *Nucleic Acids Res.* 9, 6505 (1981)).
# DNA binding assays were performed with an equivalent amount of GST-FBP or GST alone incubated in 25 mM Tris, 200 mM Glycine, 1 mM EDTA, 0.5 mg/ml BSA, 0.1% Tween20, 10% glycerol, 100 µg/ml poly(dI:dC), and 0.2 ng of labeled probe. The probe was prepared by annealing two complementary synthetic oligonucleotides and 5' end labeling with T_4 polynucleotide kinase in the presence of γ-^32P-ATP. The top strand of the FUSE oligonucleotide was 5'-[…]-3'(SEQ ID NO: 11). The top strand of Mut A was 5'-GATCACAActacgtgctaggacgccGAATATAG-3' (SEQ ID NO: 12) (lower case indicates changes from FUSE oligomer sequence). The top strand of CRE was 5'-[…]-3' (SEQ ID NO: 13). The top strand of CTE was 5'-[…]-3' (SEQ ID NO: 14). Reaction mixtures were incubated 30 minutes at room temperature and protein-DNA complexes resolved by electrophoresis on a 4.2% acrylamide gel in 25 mM Tris, 200 mM Glycine, 1 mM EDTA buffer.
# GST-FBP 278-511 = GST-FBP 278-511 (Homo sapiens, UniProt Q96AE4 SEQ:278-511); test: EMSA; same specificity as full length (FIG. 6C); details: tags: N-terminal GST (pGEX-1); C-terminal KEIEQKVQE; label: 5'-32P
# GST-FBP 278-372 = GST-FBP 278-372 (Homo sapiens, UniProt Q96AE4 SEQ:278-372); test: EMSA; details: tags: N-terminal GST; label: 5'-32P
# [2] = molecular target: GST-FBP 278-511 insertion mutant 1 (Homo sapiens, UniProt Q96AE4 SEQ:278-511, insertion RIR between GST and FBP); test: EMSA; details: tags: N-terminal GST; C-terminal KEIEQKVQE; label: 5'-32P
# [3] = molecular target: GST-FBP 278-511 insertion mutant 3 (Homo sapiens, UniProt Q96AE4 SEQ:278-511, insertion IRIR after M297); test: EMSA; details: tags: N-terminal GST; C-terminal KEIEQKVQE; label: 5'-32P
# [4] = molecular target: GST-FBP 278-511 insertion mutant 8 (Homo sapiens, UniProt Q96AE4 SEQ:278-511, insertion RDPA with deletion of QS after 404); test: EMSA; details: tags: N-terminal GST; C-terminal KEIEQKVQE; label: 5'-32P
# [5] = molecular target: GST-FBP 278-511 insertion mutant 7 (Homo sapiens, UniProt Q96AE4 SEQ:278-511, insertion RIR after 373); test: EMSA; details: tags: N-terminal GST; C-terminal KEIEQKVQE; label: 5'-32P
# [6] = molecular target: GST-FBP 278-511 insertion mutant 2 (Homo sapiens, UniProt Q96AE4 SEQ:278-511, insertion IGSRIR after M297); test: EMSA; details: tags: N-terminal GST; C-terminal KEIEQKVQE; label: 5'-32P
# GST-FBP 298-511 = GST-FBP 298-511 (Homo sapiens, UniProt Q96AE4 SEQ:298-511); test: EMSA; details: tags: N-terminal GST; C-terminal KEIEQKVQE; label: 5'-32P
# [7] = molecular target: GST-FBP 278-511 insertion mutant 4 (Homo sapiens, UniProt Q96AE4 SEQ:278-511, Q333 replaced by PRIRE); test: EMSA; details: tags: N-terminal GST; C-terminal KEIEQKVQE; label: 5'-32P
# [8] = molecular target: GST-FBP 278-511 insertion mutant 5 (Homo sapiens, UniProt Q96AE4 SEQ:278-511, insertion GIP after 336); test: EMSA; details: tags: N-terminal GST; C-terminal KEIEQKVQE; label: 5'-32P
# GST-FBP 278-474 = GST-FBP 278-474 (Homo sapiens, UniProt Q96AE4 SEQ:278-474); test: EMSA; details: tags: N-terminal GST; label: 5'-32P
# [9] = molecular target: GST-FBP 278-511 insertion mutant 9 (Homo sapiens, UniProt Q96AE4 SEQ:278-511, insertion RGSG with deletion of P after 475); test: EMSA; details: tags: N-terminal GST; C-terminal KEIEQKVQE; label: 5'-32P
Molecule,activity [1] [fold],binding result (GST alone),binding result (GST-FBP 278-511),binding result (GST-FBP 278-372),binding result [2],binding result [3],binding result [4],binding result [5],binding result [6],binding result (GST-FBP 298-511),binding result [7],binding result [8],binding result (GST-FBP 278-474),binding result [9]
myc-CAT reporter with FUSE,5,–,–,–,–,–,–,–,–,–,–,–,–,–
B1,–,no binding,binds,no binding,binds,no binding,no binding,binds,no binding,no binding,no binding,no binding,binds,binds
